In test [1] the target is T1, recombinant soluble trimeric H7 HA of A/Shanghai/02/2013 H7N9 (SH13 H7) (Influenza A virus A/Shanghai/02/2013 …). As to the kind of experiment: BLI.
The target of test [2] is A/Shanghai/02/2013 H7N9 (SH13) hemagglutinin HA1, monomeric (Influenza A virus A/Shanghai/02/2013 …, UniProt R4NN21 1-320, biotin (EZ-Link NHS-PEG4-Biotin, antigen:biotin 1:1) in the BLI only). As to the kind of experiment: BLI. A general note: In BLI a coated tip is dipped into the sample, and binding shifts an interference pattern.
In test [3] the target is T1, recombinant soluble trimeric H7 HA of …. As to the kind of experiment: ELISA.

B1: recombinant H7-235 IgG1 (rH7-235 IgG1) (antibody, V domains shown)
VH: QVQLVESGGGVVQPGESLRLSCAASGFAFRTYGMHWVRQAPGKGLEWVGVIWYDGSNKYYGDSVKGRFTISRDNSQNTLYLQMNSLRAEDTAVYYCARNGERWRVEDYYYGMDVWGQGTLVTVSS
VL: EIVMTQSPLSLPVTPGEPASISCRSSQSLLHSNAHNYLDWYLQKPGQSPQLLIYLGSNRASGVPDRFSGSGSGTDFTLKISRVEAEDVGIYYCMQALQTPITFGQGTRLEIK
With B1, the dissociation constant Kd in test [1] and in test [2] was < 0.02 nM each time. Besides, the EC50 in test [3] amounted to 0.03 nM.

B2: recombinant H7-235 fragment antigen-binding region (rH7-235 Fab) (Fab, V domains shown)
VH: QVQLVESGGGVVQPGESLRLSCAASGFAFRTYGMHWVRQAPGKGLEWVGVIWYDGSNKYYGDSVKGRFTISRDNSQNTLYLQMNSLRAEDTAVYYCARNGERWRVEDYYYGMDVWGQGTLVTVSS
VL: EIVMTQSPLSLPVTPGEPASISCRSSQSLLHSNAHNYLDWYLQKPGQSPQLLIYLGSNRASGVPDRFSGSGSGTDFTLKISRVEAEDVGIYYCMQALQTPITFGQGTRLEIK
For the molecule B2, the dissociation constant Kd in test [1] was 2.12 nM. In test [3], the concentration giving a half-maximal response (EC50) stood at 0.16 nM.

Broadly, the Kd is the constant that tells how readily two partners part at equilibrium. As usually defined, the EC50 is the concentration at which the effect is half-maximal.

These data come from publication PMC12288907 (2025).
